The target in series [1] is T1, CNBP (ZNF9) (Homo sapiens, UniProt P62633 1-177). Description: EMSA; folded in 200 mM Li+ or K+; EMSA: 20 mM HEPES pH 8.0, 10 mM MgCl2, 1 mM EDTA, 0.5 ug/uL heparin, 1 mM DTT, 1 ug/uL BSA, 10% glycerol, 100 mM KCl or LiCl, 0.75 uM RNA, 30 min 37 C; CD: 10 mM Tris-HCl pH 7.5 + 100/200 mM KCl, protein incubation 30 min 37 C, spectra at 20 C. As to conditions: protein: recombinant; tags: tag-free (expressed from pET-32a-TEV-CNBP, tag removed); no G4 formed; predicted 4-bp stem-loop.

Series [2] concerns the target T1, CNBP (ZNF9). Description: EMSA; folded in 100 mM Li+; 100 mM LiCl in binding; slightly higher affinity than in K+; EMSA: 20 mM HEPES pH 8.0, 10 mM MgCl2, 1 mM EDTA, 0.5 ug/uL heparin, 1 mM DTT, 1 ug/uL BSA, 10% glycerol, 100 mM KCl or LiCl, 0.75 uM RNA, 30 min 37 C; CD: 10 mM Tris-HCl pH 7.5 + 100/200 mM KCl, protein incubation 30 min 37 C, spectra at 20 C. The following applies: protein: recombinant; tags: tag-free (expressed from pET-32a-TEV-CNBP, tag removed); intramolecular G4; minor self-assembled multimer band in Li+.

The target of series [3] is T1, CNBP (ZNF9). Description: EMSA; folded in 200 mM Li+; 100 mM LiCl in binding; slightly higher affinity than in K+; EMSA: 20 mM HEPES pH 8.0, 10 mM MgCl2, 1 mM EDTA, 0.5 ug/uL heparin, 1 mM DTT, 1 ug/uL BSA, 10% glycerol, 100 mM KCl or LiCl, 0.75 uM RNA, 30 min 37 C; CD: 10 mM Tris-HCl pH 7.5 + 100/200 mM KCl, protein incubation 30 min 37 C, spectra at 20 C. As to conditions: protein: recombinant; tags: tag-free (expressed from pET-32a-TEV-CNBP, tag removed); intramolecular G4 (two-quartet).

Series [4] concerns the target T1, CNBP (ZNF9). Description: CD (G4 unfolding); 100 mM K+ folding; 8 uM, 1:1; EMSA: 20 mM HEPES pH 8.0, 10 mM MgCl2, 1 mM EDTA, 0.5 ug/uL heparin, 1 mM DTT, 1 ug/uL BSA, 10% glycerol, 100 mM KCl or LiCl, 0.75 uM RNA, 30 min 37 C; CD: 10 mM Tris-HCl pH 7.5 + 100/200 mM KCl, protein incubation 30 min 37 C, spectra at 20 C. The following applies: protein: recombinant; tags: tag-free (expressed from pET-32a-TEV-CNBP, tag removed); intramolecular G4.

The target of series [5] is T1, CNBP (ZNF9). Description: CD (G4 unfolding); 200 mM K+ folding; 8 uM, 1:1; EMSA: 20 mM HEPES pH 8.0, 10 mM MgCl2, 1 mM EDTA, 0.5 ug/uL heparin, 1 mM DTT, 1 ug/uL BSA, 10% glycerol, 100 mM KCl or LiCl, 0.75 uM RNA, 30 min 37 C; CD: 10 mM Tris-HCl pH 7.5 + 100/200 mM KCl, protein incubation 30 min 37 C, spectra at 20 C. The following applies: protein: recombinant; tags: tag-free (expressed from pET-32a-TEV-CNBP, tag removed); intramolecular G4.

T1 sequence (P62633 whole entry): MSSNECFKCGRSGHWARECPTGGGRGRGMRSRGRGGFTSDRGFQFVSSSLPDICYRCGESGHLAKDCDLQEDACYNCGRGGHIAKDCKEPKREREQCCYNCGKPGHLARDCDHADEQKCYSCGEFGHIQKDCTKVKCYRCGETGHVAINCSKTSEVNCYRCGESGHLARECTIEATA

For GGCUGGCAAUGGCGG (structured_RNA) [+28,903], in the series with CNBP (ZNF9) [1], the binding result is recorded as “no binding”.
Consider GGAGGAGGUGUUGCAGGA (structured_RNA) [+3467], for which the binding result in the series with CNBP (ZNF9) [2] was “binds”.
Regarding GGUAAUAAAGGAGCUGGUGG (structured_RNA) [+644], the binding result with CNBP (ZNF9) [3] was “binds”.
On to GGAUAUGGUUGGUUUGG (structured_RNA) [-23,877], for which the binding result in the series with CNBP (ZNF9) [4] was “binds”.
Turning to GGAUCUGGGUAAGGAAGG (structured_RNA) [-13,963], in the series with CNBP (ZNF9) [5], the binding result is “binds”.
